Assay results taken from FireProtDB (doi:10.1021/bi301421v).
Values joined by “and” are separate entries in the source; they are usually repeats but may differ in a detail not shown here. Equal values may be shown once.

Conditions: Helicobacter pylori (strain ATCC 700392 / 26695); pH 7.2; Thermal; CD; Tris-HCl 20 mM; transition: 2; reversible: yes; whole UniProt chain shown

B1: Arginase wild type, O25949 (protein)
chain: MILVGLEAELGASKRGTDKGVRRLREALSATHGDVIKGMQTITQERCVLYKEFRYAKNFEDYYLFCKENLIPCMKEVFEKKEFPLILSSEHANMFGIFQAFRSVHKDKKIGILYLDAHADIHTAYDSDSKHIHGMPLGMVLNRVRSGFNRMSESEEKAWQKLCSLGLEKGGLEIDPKCLVYFGVRSTEQSERDVIRELQIPLFSVDAIRENMQEVVQKTKESLKAVDIIYLSLDLDIMDGKLFTSTGVRENNGLSFDELKQLLGLLLESFKDRLKAVEVTEYNPTVSIKHNNEEEKQVLEILDLIINSCKIKDKKHSFARSY
Tm: 70 °C and 68 °C
